Source: article PMC3428623

Target: Pbs2-HKMT (S. cerevisiae) (UniProt P08018)
Assay: proximity labelling

Sequence of Pbs2-HKMT (S. cerevisiae) (P08018 whole entry): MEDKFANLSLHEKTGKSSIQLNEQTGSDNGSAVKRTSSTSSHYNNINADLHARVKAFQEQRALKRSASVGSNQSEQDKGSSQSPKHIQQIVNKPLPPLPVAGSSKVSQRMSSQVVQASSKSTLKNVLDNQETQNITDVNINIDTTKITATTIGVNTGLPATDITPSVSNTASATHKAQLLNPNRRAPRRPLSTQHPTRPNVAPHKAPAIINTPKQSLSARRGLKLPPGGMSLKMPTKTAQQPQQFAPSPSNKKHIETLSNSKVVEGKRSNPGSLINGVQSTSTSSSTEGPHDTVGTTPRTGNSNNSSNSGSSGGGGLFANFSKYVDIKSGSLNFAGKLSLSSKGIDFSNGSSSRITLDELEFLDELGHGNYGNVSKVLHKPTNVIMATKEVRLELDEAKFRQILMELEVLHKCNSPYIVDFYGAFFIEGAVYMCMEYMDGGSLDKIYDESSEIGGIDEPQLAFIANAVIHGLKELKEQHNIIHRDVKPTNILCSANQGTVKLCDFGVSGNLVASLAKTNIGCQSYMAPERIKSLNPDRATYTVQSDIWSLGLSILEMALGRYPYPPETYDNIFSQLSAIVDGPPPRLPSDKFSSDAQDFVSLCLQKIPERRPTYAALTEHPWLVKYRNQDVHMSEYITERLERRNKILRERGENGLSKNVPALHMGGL

Sho1-H3-HA Y8A mutant (natural protein)
percent reduction in methylation signal in comparison with wild-type Sho1: 70%

Sho1-H3-HA Y54M mutant (natural protein)
percent reduction in methylation signal in comparison with wild-type Sho1: 92%
